The labels stand for the following.
B1: 1D05 Fab (Fab, V domains shown)
VH: QVQLVQSGAEVKKPGSSVKVSCKASGGTFNSHAISWVRQAPGQGLEWMGGINPILGIANYAQKFQGRVTITADESTSTAYMELSSLRSEDTAVYYCARHYEIQIGRYGMNVYYLMYRFASWGQGTLVTVSS
VL: DIQMTQSPSSLSASVGDRVTITCRASQGIRSALNWYQQKPGKAPKLLIYNGSTLQSGVPSRFSGSGSGTDFTLTISSLQPEDFAVYYCQQFDGDPTFGQGTKVEIK
B2: AMG145 (evolocumab) IgG (antibody, V domains shown)
VH: EVQLVQSGAEVKKPGASVKVSCKASGYTLTSYGISWVRQAPGQGLEWMGWVSFYNGNTNYAQKLQGRGTMTTDPSTSTAYMELRSLRSDDTAVYYCARGYGMDVWGQGTTVTVSS
VL: ESALTQPASVSGSPGQSITISCTGTSSDVGGYNSVSWYQQHPGKAPKLMIYEVSNRPSGVSNRFSGSKSGNTASLTISGLQAEDEADYYCNSYTSTSMVFGGGTKLTVL
B3: HIT01-K21Q-R218E (cleavage-resistant variant of HIT01) (designed binder)
chain 1: DYSEDQEVKAPQLDHPDPGTERVAELLRCTKSVWRIPEQYLVVLREGTRDSHVQRTVSTLRAQAARRGHAIHIMHTYSGVFHGFLIKMSSEVLPMALKLPHVAYIEEDSSIFAQ
chain 2: SIPWNLQRIIQTKHETGKYTPPNDGAQVTVFLLDTSVQTDHREIEGKVMVTDFNSMPKEDGTRFHESASKCESHGTHIAGVLSGRDAGVARGVSVNTVRVLNCQGRGTVSGALAGLEYIRASLQAQPVSPVIILLPFVGGFSRTLNTACREMVHSGAVLIAAAGNYQDDACMYSPASEPEVITVGASNAADRPLSSGTTGTNLGRCVDVFAPGEDIISASGDCSTCFVSMSGTSQSAAHAAGIAAVLLNAYPSASPAEVLQLLRYHAVQRVINPDSLPPEHYLTTPDMVAALPTSAATGEKLLCRSVWSKRSGVGSFDTAVARCRHGEEMFSCSSYSPNGVHAGERIEIRDGQKVCEAHHGIGGQGVYAVARCCTGSRVKCHASASLHVGIDAECPSQEFQLTGCSSHYIRSQDVAQPSWPLHSNRKACPAGEGGTSHAFCCHAPNLECHLIEHHQSEFTKQVEVSCEDSWTLTGCNAVSHGSVTHAAYTRGNTCVIQMFGGDKGAAAIAICCRYRPLDQQSNNNHEQNT

Experiment in all cases: BLI
For orientation: Biolayer interferometry detects binding as a change in optical thickness at a sensor tip.

For assay [1], the target named is B3.
The target of assay [2] is human proprotein convertase subtilisin/kexin type 9 (PCSK9) (human, UniProt Q8NBP7 153-692).
Assay [3] deals with J16.

In assay [1], B1 showed a Kd of 1830 pM.

B2: the Kd in assay [2] was found to be 170 pM; in assay [1] it was 190 pM. Molecule B3 gave a Kd in assay [3] of 620 pM.

Broadly, the Kd is the concentration at which binding is half-saturated. Low values mean higher affinity, high ones lower affinity.

The values above are taken from publication PMC11305080 (2024).
